Results reported in article PMC11017283 (Journal of Lipid Research, 2024).

Molecular target: T1, mouse LPL (p.R324A) (mouse, UniProt P11152 28-474, p.R324A)
T1 sequence (looked up): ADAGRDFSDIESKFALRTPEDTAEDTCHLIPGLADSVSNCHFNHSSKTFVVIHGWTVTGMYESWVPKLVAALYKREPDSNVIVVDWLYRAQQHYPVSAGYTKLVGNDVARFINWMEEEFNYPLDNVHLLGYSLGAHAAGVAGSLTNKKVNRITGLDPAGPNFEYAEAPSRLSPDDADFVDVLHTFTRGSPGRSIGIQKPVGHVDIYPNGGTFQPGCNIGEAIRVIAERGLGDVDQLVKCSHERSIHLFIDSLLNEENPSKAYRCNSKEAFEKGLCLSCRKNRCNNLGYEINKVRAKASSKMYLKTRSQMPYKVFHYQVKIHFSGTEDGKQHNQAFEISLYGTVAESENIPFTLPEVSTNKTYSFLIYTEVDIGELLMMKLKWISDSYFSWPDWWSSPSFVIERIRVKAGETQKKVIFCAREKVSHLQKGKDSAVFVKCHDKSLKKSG
Experiment: native gel or EMSA

B1: recombinant human GPIHBP1, soluble (residues 1-131) (domain or fragment, UniProt Q8IV16 21-151, looked up)
chain: QTQQEEEEEDEDHGPDDYDEEDEDEVEEEETNRLPGGRSRVLLRCYTCKSLPRDERCNLTQNCSHGQTCTTLIAHGNTESGLLTTHSTWCTDSCQPITKTVEGTQVTMTCCQSSLCNVPPWQSSRVQDPTG
binding result: binds
